Two molecules from patent US20040006777A1, “Human lymphoid protein tyrosine phosphatases” (HSC Research and Development Limited Partnership, priority 1998, published 2004) can be followed below.

For one series, the target named is T1, Lyp1 (Homo sapiens, UniProt Q9Y2R2).
T1 construct: made in house; host or cells: COS cells (transient transfection, pcDNA3); anti-T7 immunoprecipitate
T1 sequence (Q9Y2R2 1-807): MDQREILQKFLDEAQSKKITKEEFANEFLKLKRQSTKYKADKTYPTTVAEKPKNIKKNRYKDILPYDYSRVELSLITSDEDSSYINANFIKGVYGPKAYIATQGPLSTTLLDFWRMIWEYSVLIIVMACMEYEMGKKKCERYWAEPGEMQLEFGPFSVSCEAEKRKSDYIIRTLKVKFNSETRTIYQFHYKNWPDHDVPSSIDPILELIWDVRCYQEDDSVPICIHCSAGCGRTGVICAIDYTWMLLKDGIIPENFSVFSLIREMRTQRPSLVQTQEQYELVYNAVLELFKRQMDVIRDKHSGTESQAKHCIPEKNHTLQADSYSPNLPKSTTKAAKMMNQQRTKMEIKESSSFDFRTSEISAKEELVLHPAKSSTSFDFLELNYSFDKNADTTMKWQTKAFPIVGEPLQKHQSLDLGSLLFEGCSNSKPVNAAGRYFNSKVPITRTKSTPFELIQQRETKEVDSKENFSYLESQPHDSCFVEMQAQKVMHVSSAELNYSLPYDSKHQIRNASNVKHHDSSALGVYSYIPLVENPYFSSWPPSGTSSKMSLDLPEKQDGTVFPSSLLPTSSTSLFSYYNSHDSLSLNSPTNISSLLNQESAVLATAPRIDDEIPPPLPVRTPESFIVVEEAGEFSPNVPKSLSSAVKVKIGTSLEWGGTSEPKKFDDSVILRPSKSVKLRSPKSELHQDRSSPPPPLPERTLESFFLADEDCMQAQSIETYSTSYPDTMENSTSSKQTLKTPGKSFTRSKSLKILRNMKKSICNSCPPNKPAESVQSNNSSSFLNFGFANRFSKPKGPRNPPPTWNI
The experiment in a line: In vitro phosphatase assay with 33P labelled Raytide peptide and Lyp immunoprecipitates. It is filed as biochemical. The settings on record: Lyp immunoprecipitates from transfected COS cells compared to control immunoprecipitates from untransfected cells. As to the method: Anti-Lyp immunoprecipitates from untransfected and pcDNA3-Lyp1 transfected cells were prepared in pervanadate free lysis buffer and incubated with ^33P labelled substrate Raytide. At the indicated time points reactions were stopped by the addition of charcoal and the free ^33P released from the peptide and now present in the supernatant measured by liquid scintillation counting.
Raytide peptide was ^33P labelled on tyrosine residues in vitro using the tyrosine kinase p60src and purified on phosphocellulose paper. Release of ^33P over time was measured in the phosphatase assay and compared to controls from untransfected cells.
Specifically, the synthetic peptide Raytide was phosphorylated according to the method described by Guan et al., (1994)(54), on tyrosine by p60src (Oncogene Science) as follows: 10 μg Raytide in 50 mM Hepes pH 7.5, 10 mM MgCl2, 0.067% mercaptoethanol, 0.05 mM ATP was incubated with 300 μCiγ^33P ATP per ml and 2 μg p60src in a final volume of 30 μl. The reaction was allowed to proceed for 30 minutes at 30° C. and was stopped by the addition of […] 10% phosphoric acid.
The sample was spotted onto two 1×1 cm sheets of P81 phophocellulose paper and extensively washed with 0.5% phosphoric acid. […]
The phosphorylated substrate was used in the phosphatase assay as described by Stueli et al (1989)(54). […] After centrifugation the free ^33P in the supernatant was measured.

The next series deals with Syk. The experiment in a line: Co-transfection of Lyp1 or Lyp-N and kinase cDNA, kinase immunoprecipitation, anti-phosphotyrosine Western blot. It is filed as cell-based. The settings on record: co-transfection with Syk. On the procedure:
(§1) Western blotting was performed with anti-phosphotyrosine antibodies and chemiluminescent detection reagents. […] Syk was unaffected by Lyp1 (C).
(§2) Western blotting was performed with anti-phosphotyrosine antibodies and chemiluminescent detection reagents. Lyp1 reduced the tyrosine phosphorylation of Jak3 (C) while having little effect on Syk (D). No effect was seen when Syk was co-transfected with Lyp-N (D).
cDNA for the phosphatase Lyp1 and the indicated kinase, in the eucaryotic expression vector pcDNA3, were transiently transfected into either the COS-7 monkey epithelial cell line (A) or the 293T human epithelial cell line as indicated. 48 hours after transfection, cells were harvested, lysates made in 1 & NP-40 lysis buffer and immunoprecipitations performed with antibodies to the transfected kinase. Immunoprecipitates were washed, boiled in SDS sample buffer and electrophoresed on SDS-PAGE. After electro-transfer to nitrocellulose membrane, Western blotting was performed with anti-phosphotyrosine antibodies and chemiluminescent detection reagents. […] Lyp1 could also down-regulate Zap-70 after its activation by Fyn in 293-T cells (B, lanes 3 and 4). The closely related Zap family kinase Syk was also unaffected by Lyp1 (C). […]

The test system of a further series is Jak3. The experiment in a line: Co-transfection of Lyp1 and kinase cDNA in COS-7, kinase immunoprecipitation, anti-phosphotyrosine Western blot. The settings on record: COS-7 cells. It is filed as cell-based. On the procedure:
as §2
cDNA for the phosphatase Lyp1 and the indicated kinase, in the eucaryotic expression vector pcDNA3, were transiently transfected into the COS-7 monkey epithelial cell line. 48 hours after transfection, cells were harvested, lysates made in 1% NP-40 lysis buffer and immunoprecipitations performed with antibodies to the transfected kinase. Immunoprecipitates were washed, boiled in SDS sample buffer and electrophoesed on SDS-PAGE. After electro-transfer to nitrocellulose membrane, Western blotting was performed with anti-phosphotyrosine antibodies and chemiluminescent detection reagents.
(In general: In western blotting, separated proteins are transferred to a membrane and probed.)

A further series deals with Ick. The experiment in a line: Co-transfection of Lyp1 and src family kinases. It is filed as cell-based. As to conditions: Lyp1 with src family kinases.
A further series concerns Lyn kinase. Briefly: Effect of Lyp1 on Lyn kinase activity. It is filed as cell-based.
Another series relates to Cbl. Briefly: Lyp1 transfection into COS-7 cells, Cbl immunoprecipitation, anti-phosphotyrosine blot. It is filed as cell-based, monkey. As to conditions: Lyp1 transfected COS-7 cells, endogenous Cbl. As to the method:
(A) Lyp immunoprecipitates from thymocytes (80×10^6 cells) stimulated with anti-CD3 were blotted with antiphsophotyrosine. A single phosphorylated band of 116 kD was detected co-immunoprecipitating with Lyp. Lyp protein loading was quantitated by anti-Lyp western blot after stripping. […] (C) Lyp1 was transfected into COS-7 cells and Cbl immunoprecipitates prepared from these and untransfected cells. Western blotting was performed with Lyp antibodies. The position of Lyp is indicted by an arrow. Cbl immunoprecipitates were also prepared and blotted with anti-phosphotyrosine (D), and then anti-Cbl after stripping.
One of the earliest events following TCR stimulation of T cells is the induction of tyrosine phosphorylation. In order to determine whether Lyp played a role in TCR signalling, human thymocytes were stimulated with anti-CD3 for various periods of time, Lyp immunoprecipitated and blotted with anti-phosphotyrosine. […] Once activated, the phosphorylation level of this protein remained constant over a period of 20 minutes. The 116 kD phosphorylated protein was identified by western blotting of Lyp immunoprecipitates from CD3 stimulated thymocytes with antibodies to various candidate proteins. […]

Another series has as its system Fyn. Briefly: Co-transfection of Lyp1 and kinase cDNA, kinase immunoprecipitation, anti-phosphotyrosine Western blot. The settings on record: COS-7 and 293-T cells. It is filed as cell-based. As to the method: as §1
(§3) cDNA for the phosphatase Lyp1 and the indicated kinase, in the eucaryotic expression vector pcDNA3, were transiently transfected into either the COS-7 monkey epithelial cell line (A) or the 293T human epithelial cell line as indicated. 48 hours after transfection, cells were harvested, lysates made in 1 & NP-40 lysis buffer and immunoprecipitations performed with antibodies to the transfected kinase. Immunoprecipitates were washed, boiled in SDS sample buffer and electrophoresed on SDS-PAGE. After electro-transfer to nitrocellulose membrane, Western blotting was performed with anti-phosphotyrosine antibodies and chemiluminescent detection reagents. […] Lyp1 could also down-regulate Zap-70 after its activation by Fyn in 293-T cells (B, lanes 3 and 4). The closely related Zap family kinase Syk was also unaffected by Lyp1 (C).

The next series deals with Zap-70. The description is as above. It is filed as cell-based. As to the method:
as §1, §3

Positions count from the first letter of the chain named. Entries after “also recorded” stand apart in the source; their conditions may differ.

B1: Lyp1: human intracellular 105 kDa lymphoid protein tyrosine phosphatase, 808 amino acids, Sequence ID NO:2 (Table 2) (protein, listed as Homo sapiens)
chain: MDQREILQKFLDEAQSKKITKEEFANEFLKLKRQSTKYKADKTYPTTVAENAKNIKKNRYKDILPYDYSRVELSLITSDEDSSYINANFIKGVYGPKAYIATQGPLSTTLLDFWRMIWEYSVLIIVMACMEYEMGKKKCERYWAEPGEMQLEFGPFSVSCEAEKRKSDYIIRTLKVKFNSETRTIYQFHYKNWPDHDVPSSIDPILELIWDVRCYQEDDSVPICIHCSAGCGRTGVICAIVDYTWMLLKDGIIPENFSVFSLIREMRTQRPSLVQTQEQYELVYNAVLELFKRQMDVIRDKHSGTESQAKHCIPEKNHTLQADSYSPNLPKSTTKAAKMMNQQRTKMEIKESSSFDFRTSEISAKEELVLHPAKSSTSFDFLELNYSFDKNADTTMKWQTKAFPIVGEPLQKHQSLDLGSLLFEGCSNSKPVNAAGRYFNSKVPITRTKSTPFELIQQRETKEVDSKENFSYLESQPHDSCFVEMQAQKVMHVSSAELNYSLPYDSKHQIRNASNVKHHDSSALGVYSYIPLVENPYFSSWPPSGTSSKMSLDLPEKQDGTVFPSSLLPTSSTSLFSYYNSHSSLSLNSPTNISSLLNQESAVLATAPRIDDEIPPPLPVRTPESFIVVEEAGEFSPNVPKSLSSAVKVKIGTSLEWGGTSEPKKFDDSVILRPSKSVKLRSPKSELHQDRSSPPPPLPERTLESFFLADEDCMQAQSIETYSTSYPDTMENSTSSKQTLKTPGKSFTRSKSLKILRNMKKSICNSCPPNKPAESVQSNNSSSFLNFGFANRFSKPKGPRNPPPTWNI
For B1, the “33P release from the substrate Raytide” value with Lyp1 is “seven fold increase”. Besides, the Syk tyrosine phosphorylation entry in the series on Syk is on record as “unaffected; also recorded: little effect; also recorded: no Syk dephosphorylation”. Besides, the Jak3 tyrosine phosphorylation entry in the series on Jak3 is “clearly reduced; also recorded: complete dephosphorylation”. Further, in the series on Ick, the Ick dephosphorylation entry is recorded as “no dephosphorylation”. In the series on Lyn kinase, the Lyn kinase activity result is given as “strongly down-regulates”. The “basal level of Cbl tyrosine phosphorylation” value in the series with Cbl is “reduce significantly”. In the series with Fyn, the Fyn tyrosine phosphorylation result is “unaffected; also recorded: no dephosphorylation”. For the same molecule, the “Zap-70 phosphorylation after its activation by Fyn” value with Zap-70 (293-T cells) is “down-regulate”. In addition, the Zap-70 tyrosine phosphorylation result in the series on Zap-70 (COS-7 and 293-T cells) is recorded as “reduction; also recorded: complete dephosphorylation”.

B2: Lyp-N: catalytically inactive form of Lyp1 where Cysteine 227 is replaced by Serine (protein, UniProt Q9Y2R2 1-807, looked up, variant C227S)
Tyrosine-protein phosphatase …: T1 sequence (Q9Y2R2 1-807) with C227S
Consider B2, for which the Syk tyrosine phosphorylation entry in the series on Syk is “No effect”.
